In paper PMC4056191:

Target: H3.3 G90M (pCDH, transfected) (human) (UniProt P84243)
Assay: co-IP

DAXX found with transfected H3 in 293T cells, sequence (Q9UER7 whole entry): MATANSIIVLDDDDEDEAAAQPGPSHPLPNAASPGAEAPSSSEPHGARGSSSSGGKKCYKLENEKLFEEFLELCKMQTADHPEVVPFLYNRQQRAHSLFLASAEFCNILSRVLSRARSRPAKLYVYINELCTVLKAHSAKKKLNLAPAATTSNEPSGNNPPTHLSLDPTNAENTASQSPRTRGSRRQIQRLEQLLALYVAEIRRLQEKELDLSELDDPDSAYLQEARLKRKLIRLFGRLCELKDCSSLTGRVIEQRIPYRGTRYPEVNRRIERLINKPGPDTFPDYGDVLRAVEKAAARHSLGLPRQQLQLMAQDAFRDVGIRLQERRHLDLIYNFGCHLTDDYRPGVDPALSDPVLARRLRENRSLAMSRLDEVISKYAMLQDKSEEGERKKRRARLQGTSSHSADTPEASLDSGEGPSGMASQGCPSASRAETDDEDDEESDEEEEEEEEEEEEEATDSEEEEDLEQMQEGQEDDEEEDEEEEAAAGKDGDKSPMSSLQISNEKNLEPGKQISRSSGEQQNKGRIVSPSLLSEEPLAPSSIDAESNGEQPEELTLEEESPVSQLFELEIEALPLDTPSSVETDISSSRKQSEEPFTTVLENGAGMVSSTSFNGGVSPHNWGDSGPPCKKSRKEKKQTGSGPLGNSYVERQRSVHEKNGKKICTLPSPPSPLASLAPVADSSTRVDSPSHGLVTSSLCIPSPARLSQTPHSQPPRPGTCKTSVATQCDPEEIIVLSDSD

Substance: DAXX found with transfected H3 in 293T cells (from UniProt Q9UER7 1-740) (natural protein)
- reduction of DAXX binding against wild-type H3.3: 50%
